Measurements published in US20220324977A1 (BEIJING SINOGENE BIOTECHNOLOGY, published 2022).
Blank lines part the entries; values can stand above or below the binder they belong to.

What was measured:
[1] = molecular target: T1, canine PD-1 protein amino acids 25-168 with His tag (canine, UniProt A0A090BAM7 25-168); test: kinetics, PD-1 His 1.1 nM
T1 construct: Expressed in Expi293F cells; used as immunogen and as antigen in ELISA and Octet; also called PD-1 His

[2] = molecular target: T1, canine PD-1 protein amino acids 25-168 …; test: kinetics, PD-1 His 4.0 nM
[3] = molecular target: T1, canine PD-1 protein amino acids 25-168 …; test: kinetics, PD-1 His 12.4 nM
[4] = molecular target: T1, canine PD-1 protein amino acids 25-168 …; test: kinetics, PD-1 His 37.3 nM
[5] = molecular target: T1, canine PD-1 protein amino acids 25-168 …; test: kinetics, PD-1 His 111.3 nM
[6] = molecular target: T1, canine PD-1 protein amino acids 25-168 …; test: kinetics, PD-1 His 333.3 nM
[7] = molecular target: T1, canine PD-1 protein amino acids 25-168 …; test: kinetics, PD-1 His 1000.0 nM
[8] = molecular target: T1, canine PD-1 protein amino acids 25-168 …; test: kinetics, global fit over PD-1 His 1.1-1000 nM
[9] = molecular target: T1, canine PD-1 protein amino acids 25-168 …; test: kinetics, global fit over the PD-1 His series 1.1-1000.0 nM
[10] = molecular target: T2, PD1 on the surface of T cells (canine PBMC stimulated with ConA) (canine, UniProt A0A090BAM7 25-288); test: flow cytometry, ConA-stimulated canine PBMC, CD3-FITC and PE-labeled anti-canine IgG
T2 construct: also called canine PD-1
T2 sequence (A0A090BAM7 entry or part of it limits assumed): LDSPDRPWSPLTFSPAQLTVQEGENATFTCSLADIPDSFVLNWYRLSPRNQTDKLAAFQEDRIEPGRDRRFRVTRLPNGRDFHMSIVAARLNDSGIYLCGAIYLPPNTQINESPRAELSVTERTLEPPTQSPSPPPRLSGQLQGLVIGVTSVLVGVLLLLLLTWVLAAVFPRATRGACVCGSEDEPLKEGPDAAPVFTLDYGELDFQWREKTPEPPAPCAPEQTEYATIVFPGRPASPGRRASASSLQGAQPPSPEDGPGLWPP
Method: (§1) The cells were stimulated by 0.5 μg/mL ConA for 3 days, and collected. PBMC was incubated with canine-anti-CD3-FITC and caninized monoclonal antibodies C1, C3 and C11 respectively. Then the cells were incubated again with PE-labeled canine-IgG antibody. […] Moreover, the results also indicate that the caninized monoclonal antibodies C1, C3 and C11 have potential blocking effect on the PD1/PD-L1 signaling pathway, and thus have protective effect on the function of T cells (see FIG. 14).

[11] = molecular target: T2, PD1 on the surface of T cells (canine …); test: flow cytometry on ConA-stimulated canine PBMC, stained with anti-CD3-FITC and the caninized antibody, detected with PE-labeled anti-canine IgG; quadrant plot FITC against PE; no unstained or isotype control shown
Method: as §1

[12] = molecular target: T1, canine PD-1 protein amino acids 25-168 …; test: ELISA, PD-1 His 100 ng/mL, clone supernatant
[13] = molecular target: T1, canine PD-1 protein amino acids 25-168 …; test: Octet BLI, supernatant captured by anti-mouse IgG Fc, PD-1 His 20 nM
Method: Octet BMIA was used to determine the affinity of the supernatant of the PD-1A clone culture to PD-1 His. Anti-mouse IgG Fc was added to each clone supernatant to capture competence factors.

PD1-Fc [14] = molecular target: T3, PD1-Fc (canine, UniProt A0A090BAM7 25-168); test: Octet BLI competition, competitor PD-L1 Fc on AHC sensor, against PD1 Fc only
T3 construct: also called Only Ag (PD1 Fc)
T3 sequence (A0A090BAM7 entry or part of it limits assumed): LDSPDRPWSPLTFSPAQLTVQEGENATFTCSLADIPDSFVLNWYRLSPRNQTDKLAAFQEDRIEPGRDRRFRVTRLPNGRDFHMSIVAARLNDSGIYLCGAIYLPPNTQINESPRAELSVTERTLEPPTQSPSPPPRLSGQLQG
Method: (§2) D-L1 Fc ([…]) was loaded on an AHC sensor for cross-linking assay. Epitope analysis was used to determine the binding of antibodies loaded on the sensor to recombinant antibodies preincubated with PD1-Fc. The binding (response) degrees observed were compared to that of antigen only under the same conditions. If the total response of an antibody was higher than that of antigen only, the antibody would be matched. If the response of an antibody was lower than 80% of that of antigen, the antibody would be blocked with each other.

PD1-Fc [15] = molecular target: T3, PD1-Fc; test: Octet BLI competition, competitor PD-L1 Fc on AHC sensor, PD1 Fc 50 nM preincubated with supernatant 1/2
Method: as §2

B2: PD-1 A-M15 (antibody, mouse IgG1, V domains shown)
VH: EVRLQQSGAELVKPGASVKLSCTASGFNIKDTYLHWLKERPEQGLEWIGRIDPAIGNTRYDPKFQVKATITADTSSNTAYLQLSSLTSEDSAVYYCARGFYGMDYWGQGTSVTVSS
VL: QIVLTQSPAIMSASPGEKVTMTCSASSSVSYMFWYQQKPGSSPRLWIYDTSNLVSGVPARFSGSRSGTSYSLTISSMEAEDAATYYCQQYSGYPYTFGGGTKLEIK
notes: Mouse IgG1 kappa, hybridoma supernatant; also called 11E10
O.D. determined by ELISA [12]: 2.34 | Kd [13]: 10.4 nM | Response (nm) [13]: 0.068 nm | koff [13]: 0.000608 s⁻¹ | kon [13]: 58500 M⁻¹ s⁻¹ | % response (PD1-Fc [14]): -8.21% | Response (nm) (PD1-Fc [15]): -0.005 nm

B4: PD-1 A-M3 (antibody, mouse IgG1, V domains shown)
VH: EVRLQQSGAELVKPGASVKLSCTASGFNIKDTYLHWLKERPEQGLEWIGRIDPAIGNTRYDPKFQVKATITADTSSNTAYLQLSSLTSEDSAVYYCARGFYGMDYWGQGTSVTVSS
VL: QIVLTQSPAIMSASPGEKVTMTCSASSSVSYMFWYQQKPGSSPRLWIYDTSNLVSGVPARFSGSRSGTSYSLTISSMEAEDAATYYCQQYSGYPYTFGGGTKLEIK
notes: Mouse IgG1 kappa, hybridoma supernatant; also called 4G01
O.D. determined by ELISA [12]: 2.87 | Kd [13]: < 0.001 nM | Response (nm) [13]: 0.041 nm | koff [13]: < 1e-07 s⁻¹ | kon [13]: 174000 M⁻¹ s⁻¹ | % response (PD1-Fc [14]): -5% | Response (nm) (PD1-Fc [15]): -0.002 nm

B6: PD-1 A-M11 (antibody, V domains shown)
VH: EVQLQQSGAEVVKPGASVKLSCTASGFNIKDTYMHWVKQRPEQGLEWIGRIDPAIGNPKYDPKFQGRATITADTSSNTAYLQLSSLTSEDTAVYYCASGFYAMDCWGQGTSVTVSS
VL: QIVLTQSPAIMSASPGEKVTMTCSASSSITYMFWYQQKPGSSPRLWIYDTSNLVSGVPARFSGSKSGTSYSLTITSMEAEDAATYYCQQYSGYPSTFGSGTKLEIK
notes: Mouse IgG1 kappa, hybridoma supernatant; The VL is therefore uncertain; also called 9B04
O.D. determined by ELISA [12]: 2.66 | Kd [13]: 0.903 nM | Response (nm) [13]: 0.049 nm | koff [13]: 0.000312 s⁻¹ | kon [13]: 346000 M⁻¹ s⁻¹ | % response (PD1-Fc [14]): -16% | Response (nm) (PD1-Fc [15]): -0.008 nm

B7: PD-1 A-M10 (antibody, mouse IgG1, V domains shown)
VH: EVRLQQSGAELVKPGASVKLSCTASGFNIKDTYLHWLKERPEQGLEWIGRIDPAIGNTRYDPKFQVKATITADTSSNTAYLQLSSLTSEDSAVYYCARGFYGMDYWGQGTSVTVSS
VL: QIVLTQSPAIMSASPGEKVTMTCSASSSVSYMFWYQQKPGSSPRLWIYDTSNLVSGVPARFSGSRSGTSYSLTISSMEAEDAATYYCQQYSGYPYTFGGGTKLEIK
notes: Mouse IgG1 kappa, hybridoma supernatant; also called 8H01
O.D. determined by ELISA [12]: 2.83 | Kd [13]: 0.0306 nM | Response (nm) [13]: 0.044 nm | koff [13]: 6.96e-06 s⁻¹ | kon [13]: 227000 M⁻¹ s⁻¹ | % response (PD1-Fc [14]): 12% | Response (nm) (PD1-Fc [15]): 0.006 nm

B8: PD-1 A-M1 (antibody, mouse IgG1, V domains shown)
VH: EVQLQQSGAELVKPGASVKLSCTASGFNIKDTYMHWVKQRPEQGLEWIGRIDPAIDNTKYDPKFQGKATITADTSSNTAYLQLSSLTSEDTAVYYCASGFYTMDYWGQGTSVTVSS
VL: QIVLTQSPAIMSASPGEKVTMTCSASSSVTYMYWFQQKPGSSPRLWIYDTSNLVSGVPARFSGSRSGTSYSLTISSMEAEDAATYYCQQYSGHPSSFGSGTKLEIK
notes: Mouse IgG1 kappa, tested as hybridoma supernatant; also called 2C08
O.D. determined by ELISA [12]: 2.65 | Kd [13]: 144 nM | Response (nm) [13]: 0.049 nm | koff [13]: 0.00044 s⁻¹ | kon [13]: 3060 M⁻¹ s⁻¹ | % response (PD1-Fc [14]): -21.9% | Response (nm) (PD1-Fc [15]): -0.009 nm

Results, then the binder that gave them:

Response (nm) [1]: -0.031 nm | Kd [2]: 18.4 nM | Response (nm) [2]: 0.005 nm | koff [2]: 1.27 s⁻¹ | kon [2]: 6.93e+07 M⁻¹ s⁻¹ | Kd [3]: 2.46 nM | Response (nm) [3]: 0.001 nm | koff [3]: 0.0198 s⁻¹ | kon [3]: 8.05e+06 M⁻¹ s⁻¹ | Kd [4]: 2.65 nM | Response (nm) [4]: 0.008 nm | koff [4]: 0.00953 s⁻¹ | kon [4]: 3.6e+06 M⁻¹ s⁻¹ | Kd [5]: 2.06 nM | Response (nm) [5]: 0.016 nm | koff [5]: 0.000886 s⁻¹ | kon [5]: 430000 M⁻¹ s⁻¹ | Response (nm) [6]: -0.004 nm | Response (nm) [7]: 0.001 nm | Kd [8]: 1.59 nM | koff [8]: 0.401 s⁻¹ | kon [8]: 2.51e+08 M⁻¹ s⁻¹ | Kd [9]: 1.59 nM | koff [9]: 0.401 s⁻¹ | kon [9]: 2.51e+08 M⁻¹ s⁻¹ | PD1 positive cells in T cells [10]: 94.6% | % of cells in quadrant Q2 (Comp-FITC-A positive, Comp-PE-A positive) [11]: 57.9%
B1: caninized monoclonal antibody C1 (antibody, V domains shown)
VH: EVQLQQSGAELVKPGASVKLSCTASGFNIKDTYMHWVKQRPEQGLEWIGRIDPAIDNTKYDPKFQGKATITADTSSNTAYLQLSSLTSEDTAVYYCASGFYTMDYWGQGTSVTVSS
VL: QIVLTQSPAIMSASPGEKVTMTCSASSSVTYMYWFQQKPGSSPRLWIYDTSNLVSGVPARFSGSRSGTSYSLTISSMEAEDAATYYCQQYSGHPSSFGSGTKLEIKR
notes: Variable domains as for M1; also called C1(35.38); 35.38

O.D. determined by ELISA [12]: 2.58 | Kd [13]: 0.537 nM | Response (nm) [13]: 0.061 nm | koff [13]: 0.000159 s⁻¹ | kon [13]: 296000 M⁻¹ s⁻¹ | % response (PD1-Fc [14]): -0.47% | Response (nm) (PD1-Fc [15]): 0 nm
B3: PD-1 A-M23 (antibody, mouse IgG1, V domains shown)
VH: EVRLQQSGAELVKPGASVKLSCTASGFNIKDTYLHWLKERPEQGLEWIGRIDPAIGNTRYDPKFQVKATITADTSSNTAYLQLSSLTSEDSAVYYCARGFYGMDYWGQGTSVTVSS
VL: QIVLTQSPAIMSASPGEKVTMTCSASSSVSYMFWYQQKPGSSPRLWIYDTSNLVSGVPARFSGSRSGTSYSLTISSMEAEDAATYYCQQYSGYPYTFGGGTKLEIK
notes: Mouse IgG1 kappa, hybridoma supernatant; also called 18A08

Response (nm) [1]: 0.002 nm | Response (nm) [2]: 0.009 nm | Response (nm) [3]: 0.005 nm | Kd [4]: < 0.001 nM | Response (nm) [4]: 0.017 nm | koff [4]: < 1e-07 s⁻¹ | kon [4]: 40500 M⁻¹ s⁻¹ | Kd [5]: < 0.001 nM | Response (nm) [5]: 0.026 nm | koff [5]: < 1e-07 s⁻¹ | kon [5]: 14700 M⁻¹ s⁻¹ | Kd [6]: < 0.001 nM | Response (nm) [6]: 0.01 nm | koff [6]: < 1e-07 s⁻¹ | kon [6]: 1760 M⁻¹ s⁻¹ | Kd [7]: < 0.001 nM | Response (nm) [7]: 0.007 nm | koff [7]: < 1e-07 s⁻¹ | kon [7]: 330 M⁻¹ s⁻¹ | Kd [8]: < 0.001 nM | koff [8]: < 1e-07 s⁻¹ | kon [8]: 626 M⁻¹ s⁻¹ | Kd [9]: < 0.001 nM | koff [9]: < 1e-07 s⁻¹ | kon [9]: 626 M⁻¹ s⁻¹ | PD1 positive cells in T cells [10]: 96.2% | % of cells in quadrant Q2 (Comp-FITC-A positive, Comp-PE-A positive) [11]: 53.1%
B5: caninized monoclonal antibody C3 (antibody, V domains shown)
VH: EVRLQQSGAELVKPGASVKLSCTASGFNIKDTYLHWLKERPEQGLEWIGRIDPAIGNTRYDPKFQVKATITADTSSNTAYLQLSSLTSEDSAVYYCARGFYGMDYWGQGTSVTVSS
VL: QIVLTQSPAIMSASPGEKVTMTCSASSSVSYMFWYQQKPGSSPRLWIYDTSNLVSGVPARFSGSRSGTSYSLTISSMEAEDAATYYCQQYSGYPYTFGGGTKLEIKR
notes: Variable domains as for M3; also called C3(36.39); 36.39
